Test results from patent US20240254229A1 (Molecular Partners, published 2024).

T1: biotinylated extracellular domain of human CD123 (SEQ ID NO: 88), Fc and Avi tagged (human, UniProt P26951 19-303, biotinylated with BirA-GST (Avi tag))
T1 construct: also called hCD123
T1 sequence: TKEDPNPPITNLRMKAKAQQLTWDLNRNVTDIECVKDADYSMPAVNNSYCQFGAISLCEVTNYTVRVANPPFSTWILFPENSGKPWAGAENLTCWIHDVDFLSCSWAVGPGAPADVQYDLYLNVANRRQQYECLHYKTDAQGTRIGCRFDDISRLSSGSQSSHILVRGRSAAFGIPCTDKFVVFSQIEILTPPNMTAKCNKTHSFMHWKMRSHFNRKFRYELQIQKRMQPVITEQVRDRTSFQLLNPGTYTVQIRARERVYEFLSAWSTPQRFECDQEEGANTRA

T2: extracellular domain of human CD70 (SEQ ID NO: 89), hCD70-Fc-trimer, ACRO Biosystems (human, UniProt P32970 52-193, chemically biotinylated where the biotinylated form was used)
T2 construct: also called human CD70-Fc-trimer; Bio.CD70
T2 sequence: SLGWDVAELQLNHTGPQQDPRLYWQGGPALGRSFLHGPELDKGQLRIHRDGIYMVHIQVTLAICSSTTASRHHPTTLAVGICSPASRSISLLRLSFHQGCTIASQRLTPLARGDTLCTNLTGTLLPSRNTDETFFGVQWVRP

B1: DARPin® protein #50 (designed binder)
chain: MRGSHHHHHHDLGKKLLEAARAGQDDEVRELLKAGADVNAKDYFSHTPLHLAARNGHLKIVEVLLKAGADVNAKDFAGKTPLHLAAADGHLEIVEVLLKAGADVNAQDIFGKTPADIAADAGHEDIAEVLQKAAGSPTPTPTTPTPTPTTPTPTPTGSDLGYKLLQAAYDGQLDEVRILLKAGADVNAKDSRGQTPLHYAASIGHLEIVEVLLKAGADVNAKDDHGWTPLHLAAWSGHLEIVEVLLKAGADVNAQDQEGTTPADLAAVQGHQDIAEVLQKAAGSPTPTPTTPTPTPTTPTPTPTGSDLGVKLLLAASRGQLDEVRILLKAGADVNAKDIDEGYTPLHIAAYYGHLEIVEVLLKAGADVNAKDRYGKTPLHLAAISGHLEIVEVLLKAGADVNAQDDKGDTPADLAADYGHQDIAEVLQKAAGSPTPTPTTPTPTPTTPTPTPTGSDLGQKLLEAAWAGQDDEVRELLKAGADVNAKNSRGWTPLHTAAQTGHLEIFEVLLKAGADVNAKDDKGVTPLHLAAALGHLEIVEVLLKAGADVNAQDSWGTTPADLAAKYGHEDIAEVLQKAA
notes: HSA-CD70-CD33-CD3
B2: DARPin® protein #61 (designed binder)
chain: DLGKKLLEAARAGQDDEVRELLKAGADVNAKDYFSHTPLHLAARNGHLKIVEVLLKAGADVNAKDFAGKTPLHLAAADGHLEIVEVLLKAGADVNAQDIFGKTPADIAADAGHEDIAEVLQKAAGSPTPTPTTPTPTPTTPTPTPTGSDLGKKLLEAARAGQDDEVRELLKAGADVNAKDYFSHTPLHLAARNGHLKIVEVLLKAGADVNAKDFAGKTPLHLAAADGHLEIVEVLLKAGADVNAQDIFGKTPADIAADAGHEDIAEVLQKAAGSPTPTPTTPTPTPTTPTPTPTGSDLGKKLLQAARAGQLDEVRELLKAGADVNAKDQQGLTPLHIAANLGHLEIVEVLLKAGADVNAKDLFGLTPLHLAAFEGHLEIVEVLLKAGADVNAKDQHGATPLHLAAWVGHLEIVEVLLKAGADVNAQDKSGKTPADLAARAGHQDIAEVLQKAAGSPTPTPTTPTPTPTTPTPTPTGSDLGKKLLQAALEGQLDEVRELLKAGADVNAKDIEGYTPLHLAAALGHLEIVEVLLKAGADVNAKDQIGRTPLHLAAYKGHLEIVEVLLKAGADVNAQDIIGQTPADLAAQRGHQDIAEVLQKAAGSPTPTPTTPTPTPTTPTPTPTGSDLGKKLLLAAERGQLDEVRILLKAGADVNAKDRAEGYTPLHIAAYQGHLEIVEVLLKAGADVNAKDRYGKTPLHLAAISGHLEIVEVLLKAGADVNAQDNKGSTPADLAADYGHQDIAEVLQKAAGSPTGSDLGQKLLEAAWAGQDDEVRELLKAGADVNAKNSRGWTPLHTAAQTGHLEIFEVLLKAGADVNAKNDKRVTPLHLAAALGHLEIVEVLLKAGADVNARDSWGTTPADLAAKYGHQDIAEVLQKAA
notes: HSA-HSA-CD70-CD123-CD33-CD3
B3: DARPin® protein #62 (designed binder)
chain: DLGKKLLEAARAGQDDEVRELLKAGADVNAKDYFSHTPLHLAARNGHLKIVEVLLKAGADVNAKDFAGKTPLHLAAADGHLEIVEVLLKAGADVNAQDIFGKTPADIAADAGHEDIAEVLQKAAGSPTPTPTTPTPTPTTPTPTPTGSDLGKKLLEAARAGQDDEVRELLKAGADVNAKDYFSHTPLHLAARNGHLKIVEVLLKAGADVNAKDFAGKTPLHLAAADGHLEIVEVLLKAGADVNAQDIFGKTPADIAADAGHEDIAEVLQKAAGSPTPTPTTPTPTPTTPTPTPTGSDLGIKLLTAAYDGQLDEVRILLKAGADVNAKDLRGQTPLHYAAGLGHLEIVEVLLKAGADVNAKDLHGWTPLHLAAWSGHLEIVEVLLKAGADVNAQDVEGVTPADLAAVQGHQDIAEVLQKAAGSPTPTPTTPTPTPTTPTPTPTGSDLGVKLLLAAERGQLDEVRILLKAGADVNAKDIAEGYTPLHIAAYQGHLEIVEVLLKAGADVNAKDRYGKTPLHLAAIGGHLEIVEVLLKAGADVNAQDNKGSTPADLAADYGHQDIAEVLQKAAGSPTPTPTTPTPTPTTPTPTPTGSDLGKKLLEAALEGQLDEVRELLKAGADVNAKDQEGYTPLHLAAALGHLEIVEVLLKAGADVNAKDQIGRTPLHLAAYKGHLEIVEVLLKAGADVNAQDIIGQTPADLAAQRGHQDIAEVLQKAAGSPTPTPTTPTPTPTTPTPTPTGSDLGQKLLEAAWAGQDDEVRELLKAGADVNAKNSRGWTPLHTAAQTGHLEIFEVLLKAGADVNAKNDKRVTPLHLAAALGHLEIVEVLLKAGADVNARDSWGTTPADLAAKYGHQDIAEVLQKAA
notes: HSA-HSA-CD70-CD33-CD123-CD3
B4: DARPin® protein #51 (designed binder)
chain: MRGSHHHHHHDLGKKLLEAARAGQDDEVRELLKAGADVNAKDYFSHTPLHLAARNGHLKIVEVLLKAGADVNAKDFAGKTPLHLAAADGHLEIVEVLLKAGADVNAQDIFGKTPADIAADAGHEDIAEVLQKAAGSPTPTPTTPTPTPTTPTPTPTGSDLGKKLLEAARAGQDDEVRELLKAGADVNAKDYFSHTPLHLAARNGHLKIVEVLLKAGADVNAKDFAGKTPLHLAAADGHLEIVEVLLKAGADVNAQDIFGKTPADIAADAGHEDIAEVLQKAAGSPTPTPTTPTPTPTTPTPTPTGSDLGYKLLQAAYDGQLDEVRILLKAGADVNAKDSRGQTPLHYAASIGHLEIVEVLLKAGADVNAKDDHGWTPLHLAAWSGHLEIVEVLLKAGADVNAQDQEGTTPADLAAVQGHQDIAEVLQKAAGSPTPTPTTPTPTPTTPTPTPTGSDLGVKLLLAASRGQLDEVRILLKAGADVNAKDIDEGYTPLHIAAYYGHLEIVEVLLKAGADVNAKDRYGKTPLHLAAISGHLEIVEVLLKAGADVNAQDDKGDTPADLAADYGHQDIAEVLQKAAGSPTPTPTTPTPTPTTPTPTPTGSDLGQKLLEAAWAGQDDEVRELLKAGADVNAKNSRGWTPLHTAAQTGHLEIFEVLLKAGADVNAKDDKGVTPLHLAAALGHLEIVEVLLKAGADVNAQDSWGTTPADLAAKYGHEDIAEVLQKAA
notes: HSA-HSA-CD70-CD33-CD3

Experiments:
[1] = biological target: T1, biotinylated extracellular domain of …; assay: SPR (ProteOn XPR36), target on GLC chip
Text: (§1) For that, DARPin® protein #27, DARPin® protein #29, DARPin® protein #47 and DARPin® protein #48 and DARPin® protein #49, DARPin® protein #50, DARPin® protein #51, DARPin® protein #52, DARPin® protein #31, DARPin® protein #53, DARPin® protein #54, DARPin® protein #55, DARPin® protein #34, DARPin® protein #33, DARPin® protein #39 and DARPin® protein #36 were subcloned and expressed as described above into derivatives of the pQE30 (Qiagen) expression vector, containing an N-terminal His-tag, CD33, CD123 and/or CD70 binding ankyrin repeat domains, followed by a CD3 specific ankyrin repeat domain and for some constructs by a human serum albumin specific ankyrin repeat domain.
(§2) Briefly, biotinylated human CD70, CD123 and CD33 was diluted in PBST (PBS, pH 7.4 containing 0.005% Tween 20®) and coated on a GLC chip (BioRad) to a level of around 200, 460 and 450 resonance units (RU) respectively. HSA in NaOAc pH 5.0 was directly immobilized on the GLC chip to a level of 800 RU. Bio.CD70, bio. CD33 and bio. CD123 required to have Neutravidin coated first to a level of 6000 RU before the biotinylated targets could be applied. The interaction of the selected ankyrin repeat proteins and human CD70, CD123 and CD33 was then measured by injecting 300 μl running buffer (PBS, pH 7.4 containing 0.005% Tween 20®) containing serial dilutions of ankyrin repeat proteins covering a concentration range between 100 nM and 2.6 nM (100, 40, 16, 6.4 and 2.6 nM respectively) for multi-trace SPR measurements, with an association of 120 s and dissociation of 1200 s using a constant flow of 100 μl/min. The regeneration was performed using 30 μl of 4 mM Glycine pH 2. The signals (i.e. resonance unit (RU) values) of the interspots and a reference injection (i.e. injection of running buffer only) were subtracted from the RU traces obtained after injection of ankyrin repeat protein (double-referencing).

[2] = biological target: T3, biotinylated extracellular domain of human CD33 (SEQ ID NO: 87), Fc and Avi tagged (human, UniProt P20138 18-259, biotinylated with BirA-GST (Avi tag)); assay: SPR (ProteOn XPR36), target on GLC chip, DARPin as analyte
T3 construct: also called hCD33; human target hCD33
T3 sequence (P20138 18-259 R69G): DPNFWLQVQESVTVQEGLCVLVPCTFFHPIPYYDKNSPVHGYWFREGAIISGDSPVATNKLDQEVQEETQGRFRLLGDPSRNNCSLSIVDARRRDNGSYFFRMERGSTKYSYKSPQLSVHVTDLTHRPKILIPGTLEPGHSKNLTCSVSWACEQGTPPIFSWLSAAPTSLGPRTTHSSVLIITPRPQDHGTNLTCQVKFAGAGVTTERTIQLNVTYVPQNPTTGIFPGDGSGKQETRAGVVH
Text: as §1, §2

[3] = biological target: T2, extracellular domain of human CD70 (SEQ …); assay: as above
Text: as §1, §2

human serum albumin = biological target: T4, human serum albumin (human, UniProt P02768 25-609); assay: as above
T4 construct: also called HSA; SA
T4 sequence (P02768 25-609 limits assumed): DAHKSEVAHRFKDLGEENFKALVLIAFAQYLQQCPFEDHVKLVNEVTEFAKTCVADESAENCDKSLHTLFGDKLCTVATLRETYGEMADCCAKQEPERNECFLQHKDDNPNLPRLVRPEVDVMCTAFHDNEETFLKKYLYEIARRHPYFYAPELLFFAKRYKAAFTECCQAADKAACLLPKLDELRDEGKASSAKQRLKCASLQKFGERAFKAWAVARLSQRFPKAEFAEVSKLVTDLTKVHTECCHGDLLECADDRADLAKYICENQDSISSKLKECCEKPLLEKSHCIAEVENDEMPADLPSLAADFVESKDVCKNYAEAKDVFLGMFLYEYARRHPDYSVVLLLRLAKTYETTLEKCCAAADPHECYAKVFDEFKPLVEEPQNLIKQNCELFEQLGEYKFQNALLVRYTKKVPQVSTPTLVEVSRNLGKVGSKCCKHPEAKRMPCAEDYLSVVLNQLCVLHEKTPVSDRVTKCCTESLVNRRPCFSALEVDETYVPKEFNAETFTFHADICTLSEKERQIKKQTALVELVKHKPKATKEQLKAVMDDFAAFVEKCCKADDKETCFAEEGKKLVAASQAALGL
Text: as §1, §2

[4] = biological target: T5, Molm-13 N1 tumor cells (carrying CD123, CD33 and CD70) (human, UniProt P20138 18-364; P26951 19-378; P32970 1-193); assay: flow cytometry on Molm-13 N1 cells, 20 uM HSA
T5 construct: whole, on cells; Not a complex: three separate antigens on one cell; also called Molm-13 N1 cells
T5 sequence (P20138 18-364, one chain of several): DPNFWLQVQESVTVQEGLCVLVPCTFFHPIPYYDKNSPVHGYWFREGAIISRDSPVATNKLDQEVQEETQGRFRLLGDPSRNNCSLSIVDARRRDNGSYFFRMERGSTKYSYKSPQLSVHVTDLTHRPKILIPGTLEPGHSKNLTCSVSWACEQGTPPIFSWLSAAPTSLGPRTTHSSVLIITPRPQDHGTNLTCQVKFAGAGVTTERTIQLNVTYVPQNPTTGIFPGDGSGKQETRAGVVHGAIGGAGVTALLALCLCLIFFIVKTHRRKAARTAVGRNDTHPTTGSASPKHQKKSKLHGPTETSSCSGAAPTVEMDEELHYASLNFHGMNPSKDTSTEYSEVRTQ
Protocol: The determination of binding of several multispecific proteins to tumor cells was performed by Fluorescence Activated Cell Sorting (FACS) flow cytometry. Therefore, tumor cells (Molm-13 N1), were seeded at 100′000 cells per well in a 96 well plate. DARPin® protein #56, DARPin® protein #57, DARPin® protein #58, DARPin® protein #59, DARPin® protein #60, DARPin® protein #61 and DARPin® protein #62 were titrated down starting at 100 nM in 1:5 dilution ratio. Tumor cells were resuspended with diluted DARPin® proteins and incubated 60 minutes at 4° C. The assay was performed in PBS including 2% fetal bovine serum and human serum albumin 20 uM (HSA). After washing twice with Phosphate Buffer saline (PBS), DARPin® protein specific tumor cell binding was detected by adding unlabelled primary […] (anti-rabbit 1-1-1 antibody, CePower) at 2 ug/ml. An incubation step of at least 30 minutes at 4° C. followed. Afterwards, cells were washed with PBS and a secondary anti-rabbit antibody labelled with Alexa Fluor 647 antibody (ThermoFisher) at 2 ug/ml was added. The same incubation conditions applied. Finally, the cells were washed twice and resuspended in Cytofix fixation buffer (BD Biosciences) for 15 min at room temperature (RT). Median fluorescence intensities (MFI) of Alexa Fluor 647 DARPin® labelled cells were measured by Attune NxT (Thermo Fisher) using FlowJo software for analyses and GraphPad Prism 8 for data plotting.

Row | Binder | binding result [1] | Kd [2] | Kd [3] | Kd (human serum albumin) | EC50 [4]
1 | B1 | no binding (tested: 100 nM (highest concentration)) | 7.5 nM | 0.81 nM | 24 nM | 
2 | B2 |  |  |  |  | 0.13 nM
3 | B3 |  |  |  |  | 0.36 nM
4 | B4 | no binding (tested: 100 nM (highest concentration)) | 5.5 nM | 0.56 nM | 1.3 nM | 
